Here are results for three molecules from patent CN101248088A (LILLY CO ELI, dated 2008).

Experiment [1] has as its target 人IL-23 (human IL-23, p19/p40 heterodimer) (human) (UniProt P29460). The experiment can be described thus: SPR (BIAcore), antibody captured on protein A CM5 chip, human IL-23 in flow, HBS-EP pH 7.4, 25 °C.
The target is the same in experiment [2]. In words: cell-based or functional assay.
In experiment [3] the target is T1, 人IL-23 (human IL-23, p19/p40 heterodimer) (human, UniProt P29460 23-328).
T1 construct: Bought human IL-23 (R&D Systems); also called hIL-23; 成熟IL-23
T1 sequence 1: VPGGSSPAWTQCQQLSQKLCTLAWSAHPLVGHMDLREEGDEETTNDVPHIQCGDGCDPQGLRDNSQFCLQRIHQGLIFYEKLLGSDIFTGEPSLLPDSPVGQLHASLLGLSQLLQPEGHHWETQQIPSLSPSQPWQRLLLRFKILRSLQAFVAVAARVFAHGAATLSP
T1 sequence 2: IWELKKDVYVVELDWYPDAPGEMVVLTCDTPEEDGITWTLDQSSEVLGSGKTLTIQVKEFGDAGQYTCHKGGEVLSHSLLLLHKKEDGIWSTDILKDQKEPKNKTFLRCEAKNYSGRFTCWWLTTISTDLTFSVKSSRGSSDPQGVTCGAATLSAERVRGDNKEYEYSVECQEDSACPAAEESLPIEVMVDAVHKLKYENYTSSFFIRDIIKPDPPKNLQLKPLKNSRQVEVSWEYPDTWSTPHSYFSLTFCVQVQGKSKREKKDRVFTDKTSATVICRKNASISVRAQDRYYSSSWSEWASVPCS
In words: SPR (BIAcore).

Experiment [4] addresses T1, 人IL-23 (human IL-23, p19/p40 …). The experiment can be described thus: cell-based or functional assay.

Positions count from the first letter of the chain named.

In experiment [1], “MAB1290 (小鼠抗人IL-23单克隆抗体, 安迪生物科技 R&D Systems) (antibody)” returned a Kd of 21400 pM, a koff of 0.000768 s⁻¹ and a kon of 36800 M⁻¹ s⁻¹. Also, the IC50, 小鼠脾细胞测定法 (IL-23-stimulated IL-17 secretion of mouse splenocytes) in experiment [2] was 2800 pM.

B1: MAbQF20 (antibody, V domains shown)
VH: QVQLVQSGAEVKKPGASVKVSCKVSGKTFWSYGINWVRQAPGKGLEWMGYIYIGTGYTEPNPKYKGRVTMTEDTSTDTAYMELSSLRSEDTAVYYCATIGGYYGNFADWGQGTTVTVSS
VL: DVVMTQSPLSLPVTLGQPASISCRSSQSLLISGGKTYLNWFQQRPGQSPRRLIYLVSKLDQGVPDRFSGSGSGTDFTLKISRVEAEDVGVYYCWQGTYFPLTFGQGTKLEIK
notes: Humanised antibody
Molecule B1 displayed a Kd in experiment [3] below 160 pM. For the same molecule, in experiment [4], the “IC50, 小鼠脾细胞测定法” value is below 20 pM and the “IC50, 小鼠脾细胞测定法 (IL-23-stimulated IL-17 secretion of mouse splenocytes)” value was 2 pM.

B2: MAbQF37 (antibody, V domains shown)
VH: B1 VH with A107D, D108Q
VL: B1 VL
notes: Humanised antibody
For the molecule B2, in experiment [3], the Kd is below 160 pM. In experiment [4], the “IC50, 小鼠脾细胞测定法” value was below 20 pM and the “IC50, 小鼠脾细胞测定法 (IL-23-stimulated IL-17 secretion of mouse splenocytes)” value came to 2 pM.
